Here are results for 16 molecules from patent US20210324011A1 (University of Washington, published 2021).

Data set [1] addresses T1, DHF119_C6_anchor.
T1 construct: hexamer: avi-tag, monomer of designed hexamer 3H22, (GGS)5 linker, C cap of DHF119; also called anchor DHF119_C6
T1 chain: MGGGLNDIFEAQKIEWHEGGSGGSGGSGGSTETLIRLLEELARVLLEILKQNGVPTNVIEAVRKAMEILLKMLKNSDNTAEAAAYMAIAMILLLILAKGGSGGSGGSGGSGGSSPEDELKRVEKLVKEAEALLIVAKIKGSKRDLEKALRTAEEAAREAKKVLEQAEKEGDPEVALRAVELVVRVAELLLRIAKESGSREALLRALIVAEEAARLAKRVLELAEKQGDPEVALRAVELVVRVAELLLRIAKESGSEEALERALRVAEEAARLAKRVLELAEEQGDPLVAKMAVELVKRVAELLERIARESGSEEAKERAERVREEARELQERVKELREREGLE
The data set is described as follows: anchor on streptavidin-coated magnetic beads, microscopy.
Text: We sought to replicate this mechanism of control by designing multimeric anchor constructs, with multiple monomeric subunits held close to the relative orientations in the corresponding filaments by a fusion to designed homo-oligomers with the appropriate geometry (FIG. 14; one of the interaction interfaces is eliminated to restrict fiber growth in one direction). […] To study the kinetics of filament formation in vitro in more detail, we attached the anchors to glass slides, added monomers fused to yellow fluorescent protein (YFP) and monitored fiber formation by total internal reflection (TIRF) microscopy. The anchors seeded the rapid growth of multiple micron length fibers over 30 minutes (FIG. 4C; for analysis of growth kinetics of a second fiber see FIG. 15).

In data set [2] the target is T1, DHF119_C6_anchor. Put plainly: TIRF microscopy over 30 minutes.
Experimental: Filament Growth In Vitro. PEG-silane coated glass coverslips were attached to similarly-coated slides with strips of double-stick tape to make flow chambers. All incubations were at 25° C.
The background of the tif movies was subtracted using the software Fiji (29) with a ball radius of 5.0. The contrast was modified to reduce background noise to facilitate fiber identification. CellProfiler™ software (37) was used to identify and track fiber through the different time frames. The output files from CellProfiler™ provided the Major axis length for every fiber through all the movie.
Data set [3] concerns the molecule itself. The data set is described as follows: negative stain EM; 1 = filaments observed (self-assembly). The source says:
The designs were expressed in Escherichia coli under the control of a T7 promoter and purified using immobilized metal affinity chromatography (IMAC). […] IMAC eluates were concentrated, and filament formation was monitored by negative stain electron microscopy (EM); insoluble designs were characterized by EM either directly in the initial insoluble fraction, or after solubilization in guanidine hydrochloride, IMAC, and subsequent removal of denaturant.
Negative Stain Electron Microscopy. Soluble fractions were concentrated and insoluble fractions were resuspended in buffer (25 mM Tris, 75 mM NaCl, pH 8) for EM screening. A drop of 6 μL (1 μl sample instantly diluted with 5 μl of buffer) was applied on negatively glow discharged, carbon-coated 200-mesh copper grids (Ted Pella, Inc.), washed with Milli-Q™ Water and stained using 0.75% uranyl formate as described previously (28). The screening was performed on either a 120 kV Tecnai Spirit™ T12 transmission electron microscope (FEI, Hillsboro, Oreg.) or a 100 kV Morgagni M268 transmission electron microscope (FEI, Hillsboro, Oreg.). Images were recorded on a bottom mount Teitz CMOS™ 4 k camera system. The contrast of the images was enhanced in the Fiji software (29) for clarity.

Data set [4] concerns the molecule itself. The data set is described as follows: fluorescence microscopy in living E. coli (self-assembly).

B1: DHF119 (designed binder)
chain: MGPEDELKRVEKLVKEAEALLIVAKIKGSKRDLEKALRTAEEAAREAVKVLVQALLEGDPEVALRAVELVVRVAELLLRIAKESGSREALLRALIVAEEAAKLAKMVLELAEKQGDPEVALRAVELVVRVAELLLRIAKESGSEEALERALRVAEEAARLAKRVLELAEEQGDPLVAKMAVELVKRVAELLERIARESGSEEAKERAERVREEARELQERVKELREREGLE
notes: vector pET28b; forms a homo-polymer; cryoEM PDB 6E9Z
As to B1, the binding result with DHF119_C6_anchor [1] is listed as “binds”.

B2: DHF119-GFP (designed binder)
chain: B1 chain
notes: not shown: green fluorescent protein
With B2, in the data set with DHF119_C6_anchor [2], the binding result was “binds”.

B3: DHF91 (designed binder)
chain: MGDERRELEKVAVKAIMAAMLGNTDEVREQLQRALEIARESGTLLAVVLALEVVARVAIEAARKGNTDAVREALEVALEIARESGTKVAVVLALEVVARVAIEAARRGNVLAVILALEVALEIARESGTEEAALLAVEVVVRVSDEAKKQGNAVAVAVAEQVAKKILE
notes: vector pET28b; forms a homo-polymer; cryoEM PDB 6E9X
As for B3, the binding result in data set [3] is “binds”.

B4: DHF76 (designed binder)
chain: MGLEKEVLRVKLVKICVLLARLKGDDTEEAREAARQAFEVVRLAAELAGIDSSEVLELAIRLIKECVENAQREGYDISLACMLAALAFKRVAEAAKRAGITSSEVLELAIRLIKECVENAQRDGYDISEACRAAAEAFKRVAEAAKRAGITSSETLKRAIEEIRKRVEEAQREGNEISEACRQAAEEFRKKAEELKRLE
notes: vector pET28b; forms a homo-polymer
As for B4, in data set [3], the binding result is listed as “binds”.

B5: DHF17 (designed binder)
chain: MGHHHHHHSSGSSEKEELRERLVEIVVALAKAKGDDTELAREAAREAFELVREAAERAGIDSSMVLILAIQLILEVVANAAKEGYDISLAALAAAEAFKRVAEAAKRAGITSSMVLILAIRLIKEVVENAQREGYDISLAALAAAEAFKRVAEAAKRAGITSSMTLMRAIEEIRKRVEEAQREGNDISEAARQAAEEFIIKAVVLKARGDV
notes: as for B4
As to B5, the binding result in data set [3] was “binds”.

B6: DHF62 (designed binder)
chain: MGIVLVIESLEAEVRLEKAKVLSVLARVRGDLKELAEALIEEARAVQELARVACEKGNSEEAERASEKAQRVLEEARKVSEEAREQGDDEVLALALIAIALAVLALAEVACCRGNSEEAERASEKAQRVLEEARKVSEEAREQGDDEVLALALIAIALAVLALAEVACCRGNKEEAERAYEDARRVEEEARKVKESAEEQGDSEVKRLAEEAEQLAREARRHVQECRGLE
notes: as for B4
For B6, the binding result in data set [3] is given as “binds”.

B7: DHF78 (designed binder)
chain: MGELVLLVAKLALAVAVQASALGDEEVFRKAAEKALELAKRLVELAKLIGDPELVLEAAKVALEVAELAAKNGDKEVFKKAAESALEVAKRLVEVASKEGDPELVLEAAKVALRVAELAAKNGDKEVFKKAAESALEVAKRLVEVASKEGDPELVEEAAKVAEEVRKLAKKQGDEEVYEKARETAREVKEELKRVREEKGLE
notes: as for B4
For B7, in data set [3], the binding result was “binds”.

B8: DHF9 (designed binder)
chain: MGLILELAKLSLERARLASEAGDRVEFKIAAEKALLLAKVLVLQAKKEGDPELVLEAAKVALRVAELAAKNGDKEVFKKAAESALEVAKRLVEVASKEGDPELVLEAAKVALRVAELAAKNGDKEVFKKAAESALEVAKRLVEVASKEGDPELVEEAAKVAEEVRKLAKKQGDEEVYEKARETAREVKEELKRVREEKGDLE
notes: as for B4
Consider B8, for which the binding result in data set [3] is recorded as “binds”.

B9: DHF82 (designed binder)
chain: MGPEEILESAKESLERAREASEAGLELVFRLAAEVALELAKRLVEQAKKEGDPELVLEAAKVALRVAELAAKNGDKEVFKKAAESALEVAKRLVEVASKEGDPELVLEAAKVALRVAELAAKNGDKEVFKKAAESALEVAKRLVEVASKEGDPTLVIMALIVAEEVIKLASKQGDELVMLKAVETAKEVKEEAMRVMLEKGLE
notes: as for B4
Regarding B9, in data set [3], the binding result is given as “binds”.

B10: DHF8 (designed binder)
chain: MGLELSLVINLVLLANLLHLQAMMKGSSEDLEKALRTAEEAAREAKKVLEQAEKNGDPEVALRAVELVVIVAITLLLIAISSGSEEALERALRVAEEAARLAKRVLELAEKAGDPEVALRAVELVVRVAELLLRIAKESGSEEALERALRVAEEAARLAKRVLELAEKQGDPEVARRAVELVKRVAELLERIARESGSEEAKERAERVREEARELQERVKELREREGLE
notes: as for B4
Regarding B10, the binding result in data set [3] is recorded as “binds”.

B11: DHF77 (designed binder)
chain: MGDSMKLVMLLLKKAVTLAKLNNDDMVALEIERAAKQIVLALAVNKSDEMAKVMLALAKAVLLAAKNNDDEVAREIARAAAEIVEALKENNSDEMAKVMLALAKAVLLAAKNNDDEVAREIARAAAEIVEALRENNSDEMAKKMLELAKRVLDAAKNNDDETAREIARQAAEEVEADRENLE
notes: as for B4
For the molecule B11, in data set [3], the binding result was “binds”.

B12: DHF20 (designed binder)
chain: MDEMKARLLIERAKEAAERAQEAAERTGDPLVRLLAEMLKRLAQEAAEEVKRDPSSSDVNEALKLIVEAIEAAVRALEAAERTGDPEVRELASELVRLAVEAAEEVQRNPSSSDVNEALKLIVEAIEAAVRALEAAERTGDPRVRELARELVRLAVEAAEEVQRNPSSVEVALALLKIVKAIEEAVESLREAEESGDPMKRLEAALRVREAVERAEEVQRN
notes: vector pCDB24 (SUMO fusion); forms a homo-polymer
With B12, the binding result in data set [3] is “binds”.

B13: DHF16 (designed binder)
chain: MGQILMKAKLSLVKAAEASLSGDELEFRIAAETALVLAKLLVLQAKKKGDPELVLEAAKVALRVAELAAKNGDKEVFKKAAESALEVAKRLVEVASKEGDPELVLEAAKVALRVAELAAKNGDKEVFKKAAESALEVAKRLVEVASKEGDPELVEEAAKVAEEVRKLAKKQGDEEVYEKARETAREVKEELKRVREEKGLE
notes: as for B4
B13: in data set [3], the binding result is given as “binds”.

B14: DHF58-GFP (designed binder)
chain: MELLRVVMLVKEAEELLTLAVIKGSEDDLQKALRTAVEAAREAVKVLLQAVKRGDPEVALRAVELVVRVAELLLRIAKESGSELALKMALLVAEEAARLAKIVLELAEKQGDPEVALRAVELVVRVAELLLRIAKESGSEEALERALRVAEEAARLAKRVLELAEKQGDPEVARRAVELVKRVAELLERIARESGSEEAKERAERVREEARELQERVKELREREGLE
notes: expressed in E. coli; not shown: green fluorescent protein
For B14, the binding result in data set [4] is reported as “binds”.

B15: DHF107 (designed binder)
chain: MGPEEILERAKESLERAREASERGDEMEFRIAAQKALELARQLVLQALAEGDPELVLEAAKVALRVAELAAKNGDKEVFKKAAESALEVAKVLVLVASKEGKPELVLEAAKVALRVAVLAAMNGDKEVFKKAAESALEVAKRLVEVASKEGDPELVLEAAKVAEKVRVLAAVQGDEEVYEKARETAREVKEELKRVMEEKGLE
notes: as for B4
Take B15: the binding result in data set [3] is listed as “binds”.

B16: DHF25 (designed binder)
chain: ARVVLKRVEKLVKEAETLLLVAIMKGSEEDLEKALRTAEEAAREAKKVLVLAVVVGDPEVALRAVELVVRVAELLLLIAIISGSEEALERALRVAEEAARLAKRVLELAENQGDPEVALRAVELVVRVAELLLMIAKVSGSEEALERALRVAEEAARLAKRVLELAEKQGDPEVARRAVELVKRVAELLERIARESGSEEAKERAERVREEALQLQARVMNLREREG
notes: as for B12
As for B16, in data set [3], the binding result is recorded as “binds”.
